Test results: publication PMC10397247
Values belong to the binder of their own block, whether it stands above or below them.

Experiments:
4H3175-bH = molecular target: T1, 4H3175-bH; assay: two-hybrid library CCNG1;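 note: natural log of median RNA to DNA barcode read ratio; higher means stronger binding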
T1 chain: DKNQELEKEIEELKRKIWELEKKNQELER

4H3926-bH = molecular target: T2, 4H3926-bH; assay: two-hybrid library CCNG1;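 note: natural log of median RNA to DNA barcode read ratio; higher means stronger binding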
T2 chain: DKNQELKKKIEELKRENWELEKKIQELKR

4H3129-bH = molecular target: T3, 4H3129-bH; assay: two-hybrid library CCNG1;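 note: natural log of median RNA to DNA barcode read ratio; higher means stronger binding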
T3 chain: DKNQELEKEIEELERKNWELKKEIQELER

4H3414-bH = molecular target: T4, 4H3414-bH; assay: two-hybrid library CCNG1;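 note: natural log of median RNA to DNA barcode read ratio; higher means stronger binding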
T4 chain: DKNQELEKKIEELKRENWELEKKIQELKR

4H3628-bH = molecular target: T5, 4H3628-bH; assay: two-hybrid library CCNG1;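 note: natural log of median RNA to DNA barcode read ratio; higher means stronger binding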
T5 chain: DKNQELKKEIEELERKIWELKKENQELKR

4H570-bH = molecular target: T6, 4H570-bH; assay: two-hybrid library CCNG1;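 note: natural log of median RNA to DNA barcode read ratio; higher means stronger binding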
T6 chain: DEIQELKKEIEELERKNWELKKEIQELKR

4H3298-bH = molecular target: T7, 4H3298-bH; assay: two-hybrid library CCNG1
T7 chain: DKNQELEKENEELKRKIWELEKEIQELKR

4H1985-bH = molecular target: T8, 4H1985-bH; assay: two-hybrid library CCNG1
T8 chain: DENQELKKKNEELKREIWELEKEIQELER

4H3858-bH = molecular target: T9, 4H3858-bH; assay: two-hybrid library CCNG1
T9 chain: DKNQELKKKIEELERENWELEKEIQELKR

4H3638-bH = molecular target: T10, 4H3638-bH; assay: two-hybrid library CCNG1
T10 chain: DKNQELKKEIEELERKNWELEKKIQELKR

4H3613-bH = molecular target: T11, 4H3613-bH; assay: two-hybrid library CCNG1
T11 chain: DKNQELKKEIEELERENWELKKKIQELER

4H3974-bH = molecular target: T12, 4H3974-bH; assay: two-hybrid library CCNG1
T12 chain: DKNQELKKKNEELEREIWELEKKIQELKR

4H3631-bH = molecular target: T13, 4H3631-bH; assay: two-hybrid library CCNG1
T13 chain: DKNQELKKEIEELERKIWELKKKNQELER

4H3277-bH = molecular target: T14, 4H3277-bH; assay: two-hybrid library CCNG1
T14 chain: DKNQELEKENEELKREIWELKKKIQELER

4H3172-bH = molecular target: T15, 4H3172-bH; assay: two-hybrid library CCNG1
T15 chain: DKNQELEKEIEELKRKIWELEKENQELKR

4H906-bH = molecular target: T16, 4H906-bH; assay: two-hybrid library CCNG1
T16 chain: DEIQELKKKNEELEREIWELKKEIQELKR

4H3462-bH = molecular target: T17, 4H3462-bH; assay: two-hybrid library CCNG1
T17 chain: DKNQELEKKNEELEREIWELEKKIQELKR

4H584-bH = molecular target: T18, 4H584-bH; assay: two-hybrid library CCNG1
T18 chain: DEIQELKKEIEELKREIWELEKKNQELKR

4H72-bH = molecular target: T19, 4H72-bH; assay: two-hybrid library CCNG1
T19 chain: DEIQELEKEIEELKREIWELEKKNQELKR

4H3817-bH = molecular target: T20, 4H3817-bH; assay: two-hybrid library CCNG1
T20 chain: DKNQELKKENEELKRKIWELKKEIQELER

4H619-bH = molecular target: T21, 4H619-bH; assay: two-hybrid library CCNG1
T21 chain: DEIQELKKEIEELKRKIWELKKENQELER

4H3162-bH = molecular target: T22, 4H3162-bH; assay: two-hybrid library CCNG1
T22 chain: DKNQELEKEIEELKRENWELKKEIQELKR

4H626-bH = molecular target: T23, 4H626-bH; assay: two-hybrid library CCNG1
T23 chain: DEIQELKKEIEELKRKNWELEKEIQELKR

4H591-bH = molecular target: T24, 4H591-bH; assay: two-hybrid library CCNG1
T24 chain: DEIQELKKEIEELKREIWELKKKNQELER

4H3497-bH = molecular target: T25, 4H3497-bH; assay: two-hybrid library CCNG1
T25 chain: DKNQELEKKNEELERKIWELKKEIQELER

4H850-bH = molecular target: T26, 4H850-bH; assay: two-hybrid library CCNG1
T26 chain: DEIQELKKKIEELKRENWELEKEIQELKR

4H607-bH = molecular target: T27, 4H607-bH; assay: two-hybrid library CCNG1
T27 chain: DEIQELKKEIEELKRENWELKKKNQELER

P11-AA = molecular target: T28, P11-AA; assay: two-hybrid library CCmax; settings: mean of both orientations
T28 chain: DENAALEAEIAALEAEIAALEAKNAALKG

AP4-AA = molecular target: T29, AP4-AA; assay: two-hybrid library CCmax; settings: mean of both orientations
T29 chain: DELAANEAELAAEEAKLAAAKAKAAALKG

AP8-AA = molecular target: T30, AP8-AA; assay: two-hybrid library CCmax; settings: mean of both orientations
T30 chain: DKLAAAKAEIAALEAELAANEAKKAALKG

P7-AA = molecular target: T31, P7-AA; assay: two-hybrid library CCmax; settings: mean of both orientations
T31 chain: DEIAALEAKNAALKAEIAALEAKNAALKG

GCN2_T = assay: two-hybrid library CCmax
P1-AA = molecular target: T32, P1-AA; assay: two-hybrid library CCmax; settings: mean of both orientations
T32 chain: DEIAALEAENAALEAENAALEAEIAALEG

P8-AA = molecular target: T33, P8-AA; assay: two-hybrid library CCmax; settings: mean of both orientations
T33 chain: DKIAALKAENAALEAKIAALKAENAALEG

P3-AA = molecular target: T34, P3-AA; assay: two-hybrid library CCmax; settings: mean of both orientations
T34 chain: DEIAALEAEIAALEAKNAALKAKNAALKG

P4-AA = molecular target: T35, P4-AA; assay: two-hybrid library CCmax; settings: mean of both orientations
T35 chain: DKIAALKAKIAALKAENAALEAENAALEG

P9-AA = molecular target: T36, P9-AA; assay: two-hybrid library CCmax; settings: mean of both orientations
T36 chain: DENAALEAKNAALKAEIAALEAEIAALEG

AP3-AA = molecular target: T37, AP3-AA; assay: two-hybrid library CCmax
T37 chain: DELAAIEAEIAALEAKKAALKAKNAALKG

AP7-AA = molecular target: T38, AP7-AA; assay: two-hybrid library CCmax; settings: mean of both orientations
T38 chain: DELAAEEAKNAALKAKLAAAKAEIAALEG

P10-AA = molecular target: T39, P10-AA; assay: two-hybrid library CCmax; settings: mean of both orientations
T39 chain: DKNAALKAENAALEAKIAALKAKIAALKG

AP6-AA = molecular target: T40, AP6-AA; assay: two-hybrid library CCmax; settings: mean of both orientations
T40 chain: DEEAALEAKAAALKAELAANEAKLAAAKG

P12-AA = molecular target: T41, P12-AA; assay: two-hybrid library CCmax; settings: mean of both orientations
T41 chain: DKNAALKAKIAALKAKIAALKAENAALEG

P2-AA = molecular target: T42, P2-AA; assay: two-hybrid library CCmax; settings: mean of both orientations
T42 chain: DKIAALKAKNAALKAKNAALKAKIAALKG

AP5-AA = molecular target: T43, AP5-AA; assay: two-hybrid library CCmax; settings: mean of both orientations
T43 chain: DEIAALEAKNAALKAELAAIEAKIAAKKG

- interaction score (4H3175-bH): -0.853
- interaction score (4H3926-bH): -0.572
- interaction score (4H3129-bH): -0.549
- interaction score (4H3414-bH): -0.255
- interaction score (4H3628-bH): -0.631
- interaction score (4H570-bH): -0.979
- interaction score (4H3298-bH): -0.821
- interaction score (4H1985-bH): -2.13
- interaction score (4H3858-bH): -1.02
- interaction score (4H3638-bH): -0.17
- interaction score (4H3613-bH): -1.08
- interaction score (4H3974-bH): 0.0704
- interaction score (4H3631-bH): 0.015
- interaction score (4H3277-bH): -0.449
- interaction score (4H3172-bH): -1.84
- interaction score (4H906-bH): -0.874
- interaction score (4H3462-bH): -0.482
- interaction score (4H584-bH): -1.1
- interaction score (4H72-bH): -0.781
- interaction score (4H3817-bH): -0.0213
- interaction score (4H619-bH): -1.32
- interaction score (4H3162-bH): -1.36
- interaction score (4H626-bH): -2.1
- interaction score (4H591-bH): -1.01
- interaction score (4H3497-bH): -0.884
- interaction score (4H850-bH): -0.707
B1: 4H1985-bH (peptide)
chain: DENQELKKKNEELKREIWELEKEIQELER

- interaction score (4H3175-bH): -1.88
- interaction score (4H3926-bH): 1.52
- interaction score (4H3628-bH): -1.68
- interaction score (4H3298-bH): -0.633
- interaction score (4H3613-bH): 0.334
- interaction score (4H607-bH): -2.63
- interaction score (4H3277-bH): -0.247
- interaction score (4H906-bH): -0.0502
- interaction score (4H3462-bH): -0.66
- interaction score (4H3162-bH): 0.549
- interaction score (4H626-bH): -1.98
- interaction score (4H591-bH): -0.636
- interaction score (4H3497-bH): -0.619
B2: 4H3162-bH (peptide)
chain: DKNQELEKEIEELKRENWELKKEIQELKR

- interaction score (P11-AA): -1.01
- interaction score (AP4-AA): -1.84
- interaction score (AP8-AA): -1.48
- interaction score (P7-AA): -1.23
- interaction score (GCN2_T): -1.8
- interaction score (P1-AA): -2.22
- interaction score (P8-AA): -1.45
- interaction score (P3-AA): -1.84
- interaction score (P4-AA): 1.61
- interaction score (P9-AA): -1.41
- interaction score (AP3-AA): 0.89
- interaction score (AP7-AA): -1.93
- interaction score (P10-AA): -0.602
- interaction score (AP6-AA): -1.78
- interaction score (P12-AA): -1.03
- interaction score (P2-AA): -1.75
- interaction score (AP5-AA): -1.45
B3: AP3-AA (peptide)
chain: DELAAIEAEIAALEAKKAALKAKNAALKG
